Substrate: CCCC(=O)Oc1ccc([N+](=O)[O-])cc1
Test: purified protein
Assay type: biochemical, uncultured Pseudomonadota bacterium
Conditions: 36 nM enzyme, no added Co2+
[1] = without Triton X-100, sigmoidal (hysteresis)

B1: Ade1 (Amazonian Dark Earth Esterase 1) (uncultured Pseudomonadota bacterium) (protein)
chain: MLYAQVNGINLHYEIEGQGQPLLLIMGLGAPAAAWDPIFVQTLTKTHQVIIYDNRGTGLSDKPDMPYSIAMFASDAVGLLDALNIPRAHVFGVSMGGMIAQELAIHYPQRVASLILGCTTPGGKHAVPAPPESLKALEGRAGLTPEEAIREGWKLSFSEEFIHTHKAELEAHIPRLLAQLTPRFAYERHFQATMTLRVFKQLKEIQAPTLVATGRDDMLIPAVNSEILAREIPGAELAIFESAGHGFVTSAREPFLKVLKEFLARQSV
B1 showed a K0.5 (with Triton X-100) of 254 ± 25 µM, a kcat (with Triton X-100) of 47 ± 1 s⁻¹ and a K0.5 [1] of 392 ± 29 µM. For the same protein, the kcat [1] was 94 ± 3 s⁻¹.
